The supplement of paper PMC12042874
± gives the uncertainty stated by the source.

What was measured:
[1] = amyloid nucleation score (Sup35N fusion, yeast selection) (log enrichment); library NNK1; higher = more nucleation; inactive = no reads after selection
How it was run: (§1)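 Plasmid inserts were Illumina-sequenced at input and output from psi-negative yeast expressing Sup35N fused to peptides of 20 random codons. The yeast were induced with 100 μM copper sulfate for 24 hours and grown 7 days at 30°C on medium lacking adenine and uracil, and sequences with under 100 input reads were excluded. Nucleation score is the DiMSum log enrichment of output over input reads, centred on the mode score of non-aggregating sequences.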

[2] = amyloid nucleation score (Sup35N fusion, yeast selection) (log enrichment); library NNK2; higher = more nucleation; inactive = no reads after selection
How it was run: as §1

Substance: TFIAGAI
- amyloid nucleation score [1]: -0.44 ± 0.37

Substance: YFSWLFPFIDLSRVSASMPT
- amyloid nucleation score [1]: 2.69 ± 0.2

Substance: VATYLLDHVYLNSCQSHCAM
- amyloid nucleation score [1]: 1 ± 0.35

Substance: GGSDFWIGN
- amyloid nucleation score [1]: 0.277 ± 0.48

Substance: NWVVFRMRHRLQTSFWGCGE
- amyloid nucleation score [1]: 0.123 ± 0.57

Substance: LMWNLTLS
- amyloid nucleation score [1]: 0.949 ± 0.97

Substance: HSNCVLVVDMLAQWLMRAGD
- amyloid nucleation score [1]: 0.384 ± 0.79

Substance: FRKCVGAQGGSGSWNGCPSE
- amyloid nucleation score [1]: 1.99 ± 0.23

Substance: RLPLHHTCYVIC
- amyloid nucleation score [1]: 0.468 ± 1.2

Substance: ITQIADLWHKMT
- amyloid nucleation score [1]: -0.954 ± 0.89

Substance: LNCWLNRSVYVRLNRQDGKT
- amyloid nucleation score [1]: 2.5 ± 0.31

Substance: RFSWMQLWCECVLHY
- amyloid nucleation score [1]: -0.162 ± 0.3

Substance: TVRCSMGYILYRWVHSRLGR
- amyloid nucleation score [1]: 1.4 ± 0.48

Substance: IRTVAR
- amyloid nucleation score [1]: 0.142 ± 0.38

Substance: VSLLSVWFDTHYIWSITGVD
- amyloid nucleation score [1]: -0.247 ± 0.45

Substance: KRSRYSKR
- amyloid nucleation score [1]: 0.103 ± 0.48

Substance: RSMACVRLFDFQSQLYFRVF
- amyloid nucleation score [1]: -0.186 ± 0.77

Substance: DEKMVSVSSESGRLHKNVKC
- amyloid nucleation score [1]: 1.11 ± 0.49

Substance: EVDFNSSFTWSHMSSKCRMF
- amyloid nucleation score [1]: -0.046 ± 0.54

Substance: SRVSFLNFWN
- amyloid nucleation score [1]: 4.27 ± 0.15

Substance: FIWIGRKRRGGICCDEWKYG
- amyloid nucleation score [1]: 0.196 ± 1.6

Substance: YSILMVNWMFWCFVEAWNHD
- amyloid nucleation score [1]: 0.623 ± 0.56

Substance: EYNYLDDTCWLGQVGRWLWF
- amyloid nucleation score [1]: 1.38 ± 0.28

Substance: MGLFFERSVKCSLF
- amyloid nucleation score [1]: -0.946 ± 1.1

Substance: WNTMWRHLGIYFKY
- amyloid nucleation score [1]: 0.249 ± 0.38

Substance: TGWLWYQHRWSDTWLPGTMR
- amyloid nucleation score [1]: 2.04 ± 0.15

Substance: APQFTKGFSEFGDLGAMRRA
- amyloid nucleation score [1]: 0.196 ± 0.67

Substance: SVTWFIYAWWFLGGSL
- amyloid nucleation score [1]: -0.921 ± 2.4

Substance: YFSSYFV
- amyloid nucleation score [1]: 0.118 ± 0.41

Substance: AGDTMAVWLPHQKRGGCFEM
- amyloid nucleation score [1]: -0.815 ± 1.2

Substance: RSWVCSSGLMVLRWNGRSYF
- amyloid nucleation score [1]: inactive

Substance: GLSVFSCQFFFNSTAFFSVN
- amyloid nucleation score [1]: 6.061 ± 0.06

Substance: DFSYSNPDFVFLTQYIAYEK
- amyloid nucleation score [1]: 4.43 ± 0.06

Substance: IRAFSWTIMLLFYCWWHVEN
- amyloid nucleation score [1]: 0.402 ± 0.86

Substance: NDYFY
- amyloid nucleation score [1]: -0.598 ± 1.4

Substance: GRECLRCTFKMVGWVATEIA
- amyloid nucleation score [1]: -0.521 ± 0.71

Substance: TRVEFEQGVVFGELYSVFRV
- amyloid nucleation score [1]: 0.351 ± 0.39

Substance: TLGAYQSCRGNVIMGQGTFV
- amyloid nucleation score [1]: 0.266 ± 0.46

Substance: MVKYPVTKNSSLPCSTRLTF
- amyloid nucleation score [1]: 1.01 ± 0.47

Substance: GSNGMRGLRWGL
- amyloid nucleation score [1]: -0.485 ± 0.31

Substance: LTGFCHFYGSIFTSYMKSL
- amyloid nucleation score [1]: inactive

Substance: WGMIWCTIYGSVSNNNINLV
- amyloid nucleation score [1]: 4.2 ± 0.053

Substance: VCVQILAASTWM
- amyloid nucleation score [1]: 0.844 ± 0.42

Substance: KNFRRYWGPSLIEIG
- amyloid nucleation score [1]: 1.13 ± 0.85

Substance: KLKQVCPLTPVSRVSEQGKK
- amyloid nucleation score [1]: -0.441 ± 1.1

Substance: DCNFCL
- amyloid nucleation score [1]: -0.545 ± 1.1

Substance: CVLFAYFNALF
- amyloid nucleation score [1]: 1.3 ± 0.57

Substance: CFILTVTYLNVGGNRMTAFH
- amyloid nucleation score [1]: 3.36 ± 0.1

Substance: YVQFCGQHARR
- amyloid nucleation score [1]: -0.516 ± 1.7

Substance: LRSTLPADRRGLICFSHI
- amyloid nucleation score [1]: 0.528 ± 1

Substance: SEEGGNTASNRVDWYTTGIV
- amyloid nucleation score [1]: 0.95 ± 0.48

Substance: VEFYRYFGWCPNYLPQHQWL
- amyloid nucleation score [1]: -0.148 ± 0.56

Substance: WDAHGDIVKG
- amyloid nucleation score [1]: 0.877 ± 1

Substance: SASEIPALSTTGSNGMDEVI
- amyloid nucleation score [1]: -0.249 ± 0.54

Substance: FFNRTKTHEVDADGALSTL
- amyloid nucleation score [1]: 0.508 ± 0.88

Substance: GTNFS
- amyloid nucleation score [1]: 0.498 ± 0.97

Substance: VDLILRRFEMRSDSLFGLWE
- amyloid nucleation score [1]: -0.481 ± 0.58

Substance: GIRMRSKNYGSWWFPLLYGE
- amyloid nucleation score [1]: 0.827 ± 0.84

Substance: VMMRTSSARMGLLLDVTCGN
- amyloid nucleation score [1]: 0.058 ± 0.61

Substance: VYYIYQLEWSDVFFSAYGVH
- amyloid nucleation score [2]: -0.072 ± 0.76

Substance: LCVYLYWF
- amyloid nucleation score [2]: -1.01 ± 0.39

Substance: TLMQSYVQFWYTLYSHNNWL
- amyloid nucleation score [2]: -0.698 ± 0.24

Substance: TLMCFYYFEQ
- amyloid nucleation score [2]: 9.395 ± 0.053

Substance: LILGYFRKELFKNASFVLNF
- amyloid nucleation score [2]: 4.05 ± 0.066

Substance: RDLEPYLHIWSLIVSARV
- amyloid nucleation score [2]: -0.014 ± 0.65

Substance: MLWQFKWESGYVTLRARPN
- amyloid nucleation score [2]: inactive

Substance: IFRFARSNTYFRGESME
- amyloid nucleation score [2]: 4.08 ± 0.095

Substance: GTSWTVTID
- amyloid nucleation score [2]: 0.537 ± 0.18

Substance: PAASLRLRELMRYDDWRGVA
- amyloid nucleation score [2]: 0.03 ± 0.38

Substance: ICWRHTGIICKAGSNRSH
- amyloid nucleation score [2]: inactive

Substance: SLEKMWCRLFKGSQT
- amyloid nucleation score [2]: 1.11 ± 0.12

Substance: DTMDSAAFTLHCIVWGYPVG
- amyloid nucleation score [2]: inactive

Substance: HSNGKMNTTIHVVSELTVMR
- amyloid nucleation score [2]: 4.31 ± 0.058

Substance: MIISTVMSGMNANSLVVWAY
- amyloid nucleation score [2]: 0.375 ± 0.21

Substance: SGTKPLCKQ
- amyloid nucleation score [2]: 1.22 ± 0.34

Substance: DIRMLERTNLIPYNKQVMGM
- amyloid nucleation score [2]: 0.163 ± 0.29

Substance: ADWQYHSVYMNTVRDKCLAQ
- amyloid nucleation score [2]: -0.06 ± 0.28

Substance: VKCLGAFGDE
- amyloid nucleation score [2]: -0.012 ± 1.1

Substance: LCIDHYVDEMPSIRVVDFYF
- amyloid nucleation score [2]: 0.741 ± 0.6

Substance: ACTLCGVWSVFTIFARHKIR
- amyloid nucleation score [2]: 3.1 ± 0.18

Substance: TFAIIQYRNCLVTPISFKHF
- amyloid nucleation score [2]: 6.5 ± 0.081

Substance: LFNLKMSPSQRKNGLPVLTI
- amyloid nucleation score [2]: inactive

Substance: CTTYPAFLSSGNPNFIMRFL
- amyloid nucleation score [2]: -0.148 ± 0.51

Substance: RNALDTDAAE
- amyloid nucleation score [2]: 0.323 ± 0.55

Substance: ALLYYSMCCRFMRPTSAYHV
- amyloid nucleation score [2]: 0.246 ± 1.1

Substance: LTEVVMAILFSDDSRYIFCG
- amyloid nucleation score [2]: 1.41 ± 0.16

Substance: CPRVSVSSVLMGKLFL
- amyloid nucleation score [2]: -1.15 ± 0.54

Substance: VTVCC
- amyloid nucleation score [2]: 1.69 ± 0.2

Substance: YGMKTGVNIFVVDVEMVKRS
- amyloid nucleation score [2]: 5.93 ± 0.068

Substance: CKRFFYFLGIPATPDRSAFS
- amyloid nucleation score [2]: -0.588 ± 0.76

Substance: ACSYANLLVTLLNSPEMPVE
- amyloid nucleation score [2]: 0.306 ± 0.5

Substance: DAVMVWVGDV
- amyloid nucleation score [2]: 0.179 ± 0.17

Substance: ALGHIQLKLHCWDYGKRCAS
- amyloid nucleation score [2]: 0.623 ± 0.25

Substance: TCNWGMDG
- amyloid nucleation score [2]: 0.553 ± 0.62

Substance: FKILFLAHRLTGLFKSSTGF
- amyloid nucleation score [2]: inactive

Substance: HLYRSCVNKLL
- amyloid nucleation score [2]: -0.833 ± 1.1

Substance: IIVSDSPTLQRS
- amyloid nucleation score [2]: 0.163 ± 0.63

Substance: CIGSRRGQSTSSVYRWSHYL
- amyloid nucleation score [2]: 0.192 ± 0.46

Substance: FFMYHAVL
- amyloid nucleation score [2]: 1.02 ± 0.34

Substance: VTPDLDCLRDNDMVCGGPDQ
- amyloid nucleation score [2]: 0.171 ± 0.23

Substance: SPWKTFMQVLWDTWVARVCL
- amyloid nucleation score [2]: 0.515 ± 0.28

Substance: MIRTHLRRIYNS
- amyloid nucleation score [2]: -1.26 ± 0.37

Substance: SLVIYV
- amyloid nucleation score [2]: -1.42 ± 0.62

Substance: VISKVSLDVCRCIRFLHYDS
- amyloid nucleation score [2]: 7.692 ± 0.061

Substance: RTCTFVCRGM
- amyloid nucleation score [2]: 2.86 ± 0.1

Substance: ICFTCQYFNKYPGRS
- amyloid nucleation score [2]: 4.31 ± 0.09

Substance: RVQVQLLISVYFFLYLPHSI
- amyloid nucleation score [2]: -1.58 ± 0.41

Substance: SKCIASFNLRSYCMSRLASS
- amyloid nucleation score [2]: -1.15 ± 1.1

Substance: MFYPRSSFSWDFPTFGLSLP
- amyloid nucleation score [2]: inactive

Substance: NFLGGLNRFLNCSSM
- amyloid nucleation score [2]: -0.683 ± 1.1

Substance: HHLKGPSQPSIVEIFE
- amyloid nucleation score [2]: -0.081 ± 0.31

Substance: DNYLYYYFYSFRLTEALFIC
- amyloid nucleation score [2]: -0.297 ± 1.1

Substance: RHKFAMMACVTYNGDVGVMT
- amyloid nucleation score [2]: 1.14 ± 0.21

Substance: MLQYWMPVLGWWAFMRNLAF
- amyloid nucleation score [2]: 1.71 ± 0.47

Substance: WGCCGDLVYAIS
- amyloid nucleation score [2]: 0.194 ± 0.62

Substance: PLMSLLPPPNTR
- amyloid nucleation score [2]: -0.935 ± 0.44

Substance: KSLYIGSAY
- amyloid nucleation score [2]: 1 ± 0.42

Substance: CVSADPFCPIEQFNVMILAL
- amyloid nucleation score [2]: -0.663 ± 0.42

Substance: IHLIREVAQRFTSCA
- amyloid nucleation score [2]: 0.7 ± 0.28

Substance: AVGNNN
- amyloid nucleation score [2]: -1.11 ± 0.74

Substance: YASYICIQHYCFFLAYYNML
- amyloid nucleation score [2]: inactive

Substance: VNRIASKWVYLLMNEFYSI
- amyloid nucleation score [2]: -1.21 ± 0.61

Substance: YVSLNNRQKFLAARLPKLEG
- amyloid nucleation score [2]: -0.51 ± 0.64

Substance: STRDQQWMMRNRG
- amyloid nucleation score [2]: -0.381 ± 0.79

Substance: CPHGCIQTARYQQ
- amyloid nucleation score [2]: 1.19 ± 0.42

Substance: VASRFDSSYMCKMAFI
- amyloid nucleation score [2]: -0.651 ± 0.54

Substance: SKSVWMRLVS
- amyloid nucleation score [2]: -0.58 ± 0.24

Substance: ANYTCTLTSL
- amyloid nucleation score [2]: -0.056 ± 0.21

Substance: HGHASFIRF
- amyloid nucleation score [2]: 2.13 ± 0.2
